Results: patent publication US20200306373A1 (Hoffmann-La Roche, published 2020)

Columns and labels:
human ICOS [1] = molecular target: T1, human ICOS (human, UniProt Q9Y6W8 21-199); assay: flow cytometry, activated human PBMCs, ICOS on CD8+ T cells
T1 construct: also called hICOS; CD278
T1 sequence: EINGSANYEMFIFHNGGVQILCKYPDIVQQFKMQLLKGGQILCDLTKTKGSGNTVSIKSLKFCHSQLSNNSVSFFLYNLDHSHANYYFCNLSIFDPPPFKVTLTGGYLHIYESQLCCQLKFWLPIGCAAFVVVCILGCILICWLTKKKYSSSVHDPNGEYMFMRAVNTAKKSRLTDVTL

human ICOS [2] = molecular target: T1, human ICOS; assay: flow cytometry, activated human PBMCs, ICOS on CD4+ T cells
[3] = molecular target: T2, human fibroblast activating protein (huFAP) (human, UniProt Q12884 1-760); assay: flow cytometry on NIH/3T3-huFAP clone 19 cells
T2 construct: Expressed on NIH/3T3-huFAP clone 19 cells; also called human FAP; hFAP
Description: (§1) This cell line was generated by the transfection of the mouse embryonic fibroblast NIH/3T3 cell line (ATCC CRL-1658) with the expression vector pETR4921 to express huFAP under […] Puromycin selection.
(§2) The staining was fixed for 20 min at 4° C. in the dark, using 75 μl of 1% PFA in FACS buffer per well. Fluorescence was analyzed by FACS using a FACS Fortessa (Software FACS Diva). Binding curves were obtained using GraphPadPrism6 and are shown in FIGS. 6A-6C and 7A-7B, respectively.

[4] = molecular target: T2, human fibroblast activating protein …; assay: flow cytometry on NIH/3T3-huFAP clone 19 cells (human FAP), PE anti-human secondary, median fluorescence intensity
Description: as §1, §2

human ICOS [5] = molecular target: T1, human ICOS; assay: cell-based or functional assay
human CEA = molecular target: T3, human CEA (human, UniProt P06731 35-685); assay: flow cytometry on MKN45 cells (human CEA), Alexa Fluor 647 anti-human Fc secondary, frequency of A647+ cells
T3 construct: Endogenous CEA on MKN45 human gastric adenocarcinoma cells; also called Carcinoembryonic antigen; CEACAM5
T3 sequence: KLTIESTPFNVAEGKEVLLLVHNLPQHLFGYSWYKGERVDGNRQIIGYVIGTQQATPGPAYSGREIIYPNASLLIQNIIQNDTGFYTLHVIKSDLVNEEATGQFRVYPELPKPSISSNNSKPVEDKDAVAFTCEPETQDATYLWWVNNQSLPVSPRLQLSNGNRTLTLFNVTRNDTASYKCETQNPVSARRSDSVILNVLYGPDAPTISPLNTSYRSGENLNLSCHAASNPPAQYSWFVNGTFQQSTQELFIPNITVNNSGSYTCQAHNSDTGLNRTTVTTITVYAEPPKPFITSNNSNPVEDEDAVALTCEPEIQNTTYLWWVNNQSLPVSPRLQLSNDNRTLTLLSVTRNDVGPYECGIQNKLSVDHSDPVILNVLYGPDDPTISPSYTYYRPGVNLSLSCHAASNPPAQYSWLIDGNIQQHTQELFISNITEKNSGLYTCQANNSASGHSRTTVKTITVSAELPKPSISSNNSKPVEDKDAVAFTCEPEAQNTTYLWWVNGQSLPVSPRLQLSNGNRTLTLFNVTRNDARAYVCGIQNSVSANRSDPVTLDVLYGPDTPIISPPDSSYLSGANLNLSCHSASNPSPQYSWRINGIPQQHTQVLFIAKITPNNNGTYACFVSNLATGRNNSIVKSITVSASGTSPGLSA
Description: Briefly, human PBMCs, isolated from either Buffy Coats or fresh blood from healthy human donors (as described in Example 5.1) were incubated in a humidified incubator at 37° C. for 48 hours in RPMI1640 medium including […] PHA-L (Roche, #11249738001) and 100 units/ml recombinant human IL-2 (“Proleukin”, Novartis) at a cell density of 1 million cells per ml.
At the day of the assay, pre-activated PBMCs cells were harvested, washed with PBS, and 0.2 million cells in FACS buffer (PBS with 0.1% BSA) were plated per well of a 96-round bottom-well plate. Likewise, adherent MKN45 tumor cells were detached using trypsin (Gibco, 25300-054), washed and 0.15 million cells were transferred into the 96-round bottom well-plate. […] Cells were washed with FACS buffer and the staining was fixed for 20 min at 4° C. in the dark, using 75 µl of 1% PFA in FACS buffer per well. Cells were washed again two times with FACS Buffer and re-suspended in FACS Buffer for analysis.
Fluorescence was analyzed by FACS using a FACS Fortessa (Software FACS Diva). Binding curves and EC₅₀ values were obtained using GraphPadPrism6.

[6] = molecular target: T4, murine ICOS Fc(kih) Avi tag (murine, Avi tag, captured on a streptavidin chip); assay: SPR, Biacore T200, 25 C, murine ICOS Fc(kih) on streptavidin chip, antibody injected 1000-31.25 nM, 1:1 Langmuir
T4 construct: also called recombinant murine ICOS Fc(kih)
Description: Surface plasmon resonance experiments were performed on a Biacore T200 at 25° C. with HBS-EP as running buffer (0.01 M HEPES pH 7.4, 0.15 M NaCl, 0.005% (v/v) Surfactant P20 (GE Healthcare)).
The immobilization level was approximately 600 RU. […] The dissociation phase was monitored for 500 s and triggered by switching from the sample solution to HBS-EP. The chip surface was regenerated after every cycle using one injection of 10 mM Glycine pH 3.0 for 60 s.
The affinity constants were derived from the kinetic rate constants by fitting to a 1:1 Langmuir binding using the BIAeval software (GE Healthcare).

T4 sequence (chain, as listed by the source limits assumed, chain 1 of 2): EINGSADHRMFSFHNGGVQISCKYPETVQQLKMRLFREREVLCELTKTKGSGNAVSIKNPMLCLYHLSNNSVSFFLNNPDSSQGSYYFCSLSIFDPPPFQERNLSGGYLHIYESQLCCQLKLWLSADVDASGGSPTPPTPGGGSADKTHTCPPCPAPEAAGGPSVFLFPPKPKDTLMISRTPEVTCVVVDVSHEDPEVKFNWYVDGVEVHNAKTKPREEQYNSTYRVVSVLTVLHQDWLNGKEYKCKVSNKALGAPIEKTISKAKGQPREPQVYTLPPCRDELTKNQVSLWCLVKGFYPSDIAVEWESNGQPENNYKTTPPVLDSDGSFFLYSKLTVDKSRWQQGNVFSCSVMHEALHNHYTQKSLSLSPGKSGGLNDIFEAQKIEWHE
T4 sequence (chain, as listed by the source limits assumed, chain 2 of 2): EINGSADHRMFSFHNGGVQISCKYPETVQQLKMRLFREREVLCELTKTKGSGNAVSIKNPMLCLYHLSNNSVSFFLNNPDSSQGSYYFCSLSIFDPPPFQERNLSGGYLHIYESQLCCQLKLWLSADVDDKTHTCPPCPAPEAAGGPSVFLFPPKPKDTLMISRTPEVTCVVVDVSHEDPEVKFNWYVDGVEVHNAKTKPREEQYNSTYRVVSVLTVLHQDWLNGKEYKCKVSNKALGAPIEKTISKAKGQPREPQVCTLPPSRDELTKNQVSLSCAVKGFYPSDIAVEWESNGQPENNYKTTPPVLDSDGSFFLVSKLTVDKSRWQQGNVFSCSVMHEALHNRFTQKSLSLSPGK

B1: FAP-ICOS_1+1, huIgG1 P329G LALA, monovalent ICOS (JMAb136), monovalent FAP (4B9) (bispecific antibody)
heavy 1: not shown
light 1: DIQMTQSPSSVSASVGDRVTITCRASQGISRLLAWYQQKPGKAPKLLIYVASSLQSGVPSRFSGSGSGTDFTLTISSLQPEDFATYYCQQANSFPWTFGQGTKVEIKRTVAAPSVFIFPPSDRKLKSGTASVVCLLNNFYPREAKVQWKVDNALQSGNSQESVTEQDSKDSTYSLSSTLTLSKADYEKHKVYACEVTHQGLSSPVTKSFNRGEC
heavy 2: EIVLTQSPGTLSLSPGERATLSCRASQSVTSSYLAWYQQKPGQAPRLLINVGSRRATGIPDRFSGSGSGTDFTLTISRLEPEDFAVYYCQQGIMLPPTFGQGTKVEIKSSASTKGPSVFPLAPSSKSTSGGTAALGCLVKDYFPEPVTVSWNSGALTSGVHTFPAVLQSSGLYSLSSVVTVPSSSLGTQTYICNVNHKPSNTKVDKKVEPKSCDKTHTCPPCPAPEAAGGPSVFLFPPKPKDTLMISRTPEVTCVVVDVSHEDPEVKFNWYVDGVEVHNAKTKPREEQYNSTYRVVSVLTVLHQDWLNGKEYKCKVSNKALGAPIEKTISKAKGQPREPQVCTLPPSRDELTKNQVSLSCAVKGFYPSDIAVEWESNGQPENNYKTTPPVLDSDGSFFLVSKLTVDKSRWQQGNVFSCSVMHEALHNHYTQKSLSLSP
light 2: EVQLLESGGGLVQPGGSLRLSCAASGFTFSSYAMSWVRQAPGKGLEWVSAIIGSGASTYYADSVKGRFTISRDNSKNTLYLQMNSLRAEDTAVYYCAKGWFGGFNYWGQGTLVTVSSASVAAPSVFIFPPSDEQLKSGTASVVCLLNNFYPREAKVQWKVDNALQSGNSQESVTEQDSKDSTYSLSSTLTLSKADYEKHKVYACEVTHQGLSSPVTKSFNRGEC
notes: also called ICOS-FAP 1+1; ICOS(JMab136)-FAP(4B9) 1 + 1
- EC50 (human ICOS [1]): 50.7 nM
- EC50 (human ICOS [2]): 34.9 nM
- EC50 [3]: 2.98 nM
- EC50 (read off the curve) [4]: ~3 nM
- Fold increase vs TCB only at 200 pM CEA-ICOS (% CD69^+CD4^+), Donor 1 (D1) (human ICOS [5]): 2.5 fold
- Fold increase vs TCB only at 200 pM CEA-ICOS (% CD69^+CD4^+), Donor 2 (D2) (human ICOS [5]): 1.5 fold
- Fold increase vs TCB only at 1000 pM CEA-ICOS (% CD69^+CD4^+), Donor 1 (D1) (human ICOS [5]): 2.65 fold
- Fold increase vs TCB only at 1000 pM CEA-ICOS (% CD69^+CD4^+), Donor 2 (D2) (human ICOS [5]): 1.68 fold

B2: ICOS(JMab136)-CEA(MEDI-565) 1+1, CEA-ICOS_1+1, huIgG1 P329G LALA, monovalent ICOS (JMAb136), monovalent CEA (MEDI-565) (bispecific antibody)
heavy 1: not shown
light 1: B1 light 1
heavy 2: not shown
light 2: EVQLVESGGGLVQPGRSLRLSCAASGFTVSSYWMHWVRQAPGKGLEWVGFIRNKANGGTTEYAASVKGRFTISRDDSKNTLYLQMNSLRAEDTAVYYCARDRGLRFYFDYWGQGTTVTVSSASVAAPSVFIFPPSDEQLKSGTASVVCLLNNFYPREAKVQWKVDNALQSGNSQESVTEQDSKDSTYSLSSTLTLSKADYEKHKVYACEVTHQGLSSPVTKSFNRGEC
notes: Human IgG1 P329G LALA, knob-into-hole; also called CEA(MEDI565)-ICOS(JMAb136)_1 + 1
- EC50 (read off the curve) (human CEA): ~0.05 nM
- Fold increase vs TCB only at 200 pM CEA-ICOS (% CD69^+CD4^+), Donor 1 (D1) (human ICOS [5]): 4.99 fold
- Fold increase vs TCB only at 200 pM CEA-ICOS (% CD69^+CD4^+), Donor 2 (D2) (human ICOS [5]): 2.91 fold
- Fold increase vs TCB only at 1000 pM CEA-ICOS (% CD69^+CD4^+), Donor 1 (D1) (human ICOS [5]): 5.95 fold
- Fold increase vs TCB only at 1000 pM CEA-ICOS (% CD69^+CD4^+), Donor 2 (D2) (human ICOS [5]): 2.47 fold

B3: ICOS(JMab136)-CEA(MEDI-565) 2+1, CEA-ICOS_2+1 huIgG1 P329G LALA, bivalent ICOS (JMAb136), monovalent CEA (MEDI-565) (bispecific antibody)
heavy 1: not shown
heavy 2: not shown
light: B1 light 1
notes: Human IgG1 P329G LALA, knob-into-hole; also called CEA(MEDI565)-ICOS(JMAb136)_2 + 1
- EC50 (read off the curve) (human CEA): ~0.5 nM
- Fold increase vs TCB only at 200 pM CEA-ICOS (% CD69^+CD4^+), Donor 1 (D1) (human ICOS [5]): 5.17 fold
- Fold increase vs TCB only at 200 pM CEA-ICOS (% CD69^+CD4^+), Donor 2 (D2) (human ICOS [5]): 2.86 fold
- Fold increase vs TCB only at 1000 pM CEA-ICOS (% CD69^+CD4^+), Donor 1 (D1) (human ICOS [5]): 5.52 fold
- Fold increase vs TCB only at 1000 pM CEA-ICOS (% CD69^+CD4^+), Donor 2 (D2) (human ICOS [5]): 1.99 fold

B4: FAP-ICOS_1+1_HT, huIgG1 P329G LALA, monovalent ICOS (JMAb136), monovalent FAP (4B9) c-terminal fused of the heavy chain C region (bispecific antibody)
heavy 1: not shown
heavy 2: DKTHTCPPCPAPEAAGGPSVFLFPPKPKDTLMISRTPEVTCVVVDVSHEDPEVKFNWYVDGVEVHNAKTKPREEQYNSTYRVVSVLTVLHQDWLNGKEYKCKVSNKALGAPIEKTISKAKGQPREPQVCTLPPSRDELTKNQVSLSCAVKGFYPSDIAVEWESNGQPENNYKTTPPVLDSDGSFFLVSKLTVDKSRWQQGNVFSCSVMHEALHNHYTQKSLSLSPGGGGGSGGGGSGGGGSGGGGSEIVLTQSPGTLSLSPGERATLSCRASQSVTSSYLAWYQQKPGQAPRLLINVGSRRATGIPDRFSGSGSGTDFTLTISRLEPEDFAVYYCQQGIMLPPTFGQGTKVEIK
light: B1 light 1
notes: Human IgG1 P329G LALA, knob-into-hole; 4B9 VH and VL fused to the C-termini of the two Fc chains; also called ICOS-FAP 1+1 HT; 1+1 head-to-tail
- EC50 (human ICOS [1]): 56.4 nM
- EC50 (human ICOS [2]): 42.6 nM
- EC50 [3]: 6.73 nM

B5: FAP-ICOS_2+1, huIgG1 P329G LALA, bivalent ICOS (JMAb136), monovalent FAP (4B9) (bispecific antibody)
heavy 1: not shown
heavy 2: not shown
light: B1 light 1
notes: Human IgG1 P329G LALA, knob-into-hole; also called ICOS-FAP 2+1; ICOS(JMab136)-FAP(4B9) 2 + 1
- EC50 (human ICOS [1]): 14.4 nM
- EC50 (human ICOS [2]): 10.7 nM
- EC50 [3]: 5.19 nM
- Fold increase vs TCB only at 200 pM CEA-ICOS (% CD69^+CD4^+), Donor 1 (D1) (human ICOS [5]): 2.66 fold
- Fold increase vs TCB only at 200 pM CEA-ICOS (% CD69^+CD4^+), Donor 2 (D2) (human ICOS [5]): 1.38 fold
- Fold increase vs TCB only at 1000 pM CEA-ICOS (% CD69^+CD4^+), Donor 1 (D1) (human ICOS [5]): 2.66 fold
- Fold increase vs TCB only at 1000 pM CEA-ICOS (% CD69^+CD4^+), Donor 2 (D2) (human ICOS [5]): 1.96 fold

B6: DP47-ICOS_2+1, huIgG1 P329G LALA, bivalent ICOS (JMAb136), monovalent DP47 (bispecific antibody)
heavy 1: not shown
heavy 2: not shown
light: B1 light 1
notes: Untargeted control, human IgG1 P329G LALA, bivalent for ICOS; also called ICOS-DP47 control molecule; untargeted DP47-ICOS
- EC50 (human ICOS [1]): 12.4 nM
- EC50 (human ICOS [2]): 9.99 nM
- binding result [4]: no binding (tested: about 120000 pM)

B7: DP47-ICOS_1+1, huIgG1 P329G LALA, monovalent ICOS (JMAb136), monovalent DP47 (bispecific antibody)
heavy 1: not shown
light 1: B1 light 1
heavy 2: not shown
light 2: not shown
notes: Untargeted control, human IgG1 P329G LALA; also called ICOS-DP47 control molecule; untargeted DP47-ICOS
- EC50 (human ICOS [1]): 25.7 nM
- EC50 (human ICOS [2]): 19.9 nM
- binding result [4]: no binding (tested: about 120000 pM)

B8: anti-ICOS 16E09 IgG1 P329G LALA antibody (antibody, V domains shown)
VH: EVQLVQSGAEVKKPGESLKISCKGSGYSFTSYWIGWVRQMPGKGLEWMGIIYPGDSDTRYSPSFQGQVTISADKSISTAYLQWSSLKASDTAMYYCARSSGPYGLYLDYWGQGTLVTVSS
VL: not shown
notes: also called phage-derived ICOS-specific antibody 16E09
- Kd [6]: 180 nM
- koff [6]: 0.0192 s⁻¹
- kon [6]: 144000 M⁻¹ s⁻¹
